From IntAct's records for PubMed 17167417 come the findings set out here.

First the molecules themselves.
B1: DNA replication regulator DPB11 (Saccharomyces cerevisiae), P47027 (parent)
chain: MKPFQGITFCPTAINNEILAKKISKKIIKLGGIFSKDLTRQVNVLVVGSTTNTNKFKFAVKHRFDIIFIDIQAIDDIYQLWLSGENILPDSNTATMTGSTYEMLKILYRRFSFKYLHNFNIFIGRITDTNITSIDSLVRSIKKLGCSSYNYQNFVIKDTSSHNDDDDQGQNGQISIFVTDTLLGARVNAAIEQNIPIVHFKWILDCQKRSALLPYDPYYLLPNIKDLPYDSIGSNSCDCWDKINTTFPTNIDAQSSLQRQQSSSTLTPSLPKTSSLLNKFKPKGEKIWDKAMSLQQHSKTNFSVLGQSPLSINNKQEDLSDNSTLIFKNCAFIIHHIFPGNHRSILTKIVVQNGGKIETSYLSGIYDHSYYIIPSNKALDSFNDLPEIIDDNDGIVTEFFIERCLYYQKLLHPIDLWSKPFLSTIEFQVSSSSKLLHHEFSSSPFLNVTITGFSGVELLHLTKVLNLLKPMGINYVEYLNKSTDILLINLAALPSIPKTHPLWSNEFSDLFTQFCINNNNDDPGDNNRKDFQNNSILRNSMKRKIEYIKKFHSIPVVTPAFIFKLLSAASGENNEIFLNNIKWCIICPRGHKDDFKCKIKKPYYTSISSEKKYQNNDPKIDKTILLKRNNSSLSEHSMKDTKNELLQKIRETDSGRKKRSVSSSIMDVSSERQMPDTKRIKLESLPKNFVPKQIKRTTSWGTIMSENVPTEQPTAISNPEEIPRTEEVSHTQVTYGSIQDKKRTASLEKPMRRQTRNQTKELDS
partner: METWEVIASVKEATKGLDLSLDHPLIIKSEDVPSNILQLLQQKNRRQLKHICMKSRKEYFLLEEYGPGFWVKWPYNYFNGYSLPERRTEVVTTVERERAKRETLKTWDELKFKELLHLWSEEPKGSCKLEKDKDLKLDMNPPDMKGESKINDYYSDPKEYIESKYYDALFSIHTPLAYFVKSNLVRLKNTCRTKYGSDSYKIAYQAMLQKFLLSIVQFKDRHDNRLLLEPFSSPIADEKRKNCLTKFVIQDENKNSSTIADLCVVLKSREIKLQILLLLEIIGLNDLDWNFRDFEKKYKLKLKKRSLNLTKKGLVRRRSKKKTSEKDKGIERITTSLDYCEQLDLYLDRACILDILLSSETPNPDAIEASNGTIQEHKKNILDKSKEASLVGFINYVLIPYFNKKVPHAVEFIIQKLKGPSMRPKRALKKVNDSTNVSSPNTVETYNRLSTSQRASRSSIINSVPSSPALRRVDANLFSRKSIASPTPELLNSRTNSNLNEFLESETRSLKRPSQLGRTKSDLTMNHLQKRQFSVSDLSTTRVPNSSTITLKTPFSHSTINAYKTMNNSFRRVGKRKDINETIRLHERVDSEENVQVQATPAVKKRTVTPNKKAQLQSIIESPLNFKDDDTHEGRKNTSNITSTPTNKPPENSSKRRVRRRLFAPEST

In this assay the parent is B1. To be noted: with sld3_yeast SLD3, P53135.
For the variant K55D;F56P, the “effect of a mutation on the interaction” value is “disrupting interaction strength”.
